Test results from publication PMC10786891, “Massively parallel profiling of RNA-targeting CRISPR-Cas13d”.
Numbering of substitutions follows the chain as printed. Names and notes keep the numbering of the source.

T1: EsCas13d, nuclease-dead (Eubacterium siraeum, UniProt B0MS50, R295A;H300A;R849A;H854A)
T1 sequence: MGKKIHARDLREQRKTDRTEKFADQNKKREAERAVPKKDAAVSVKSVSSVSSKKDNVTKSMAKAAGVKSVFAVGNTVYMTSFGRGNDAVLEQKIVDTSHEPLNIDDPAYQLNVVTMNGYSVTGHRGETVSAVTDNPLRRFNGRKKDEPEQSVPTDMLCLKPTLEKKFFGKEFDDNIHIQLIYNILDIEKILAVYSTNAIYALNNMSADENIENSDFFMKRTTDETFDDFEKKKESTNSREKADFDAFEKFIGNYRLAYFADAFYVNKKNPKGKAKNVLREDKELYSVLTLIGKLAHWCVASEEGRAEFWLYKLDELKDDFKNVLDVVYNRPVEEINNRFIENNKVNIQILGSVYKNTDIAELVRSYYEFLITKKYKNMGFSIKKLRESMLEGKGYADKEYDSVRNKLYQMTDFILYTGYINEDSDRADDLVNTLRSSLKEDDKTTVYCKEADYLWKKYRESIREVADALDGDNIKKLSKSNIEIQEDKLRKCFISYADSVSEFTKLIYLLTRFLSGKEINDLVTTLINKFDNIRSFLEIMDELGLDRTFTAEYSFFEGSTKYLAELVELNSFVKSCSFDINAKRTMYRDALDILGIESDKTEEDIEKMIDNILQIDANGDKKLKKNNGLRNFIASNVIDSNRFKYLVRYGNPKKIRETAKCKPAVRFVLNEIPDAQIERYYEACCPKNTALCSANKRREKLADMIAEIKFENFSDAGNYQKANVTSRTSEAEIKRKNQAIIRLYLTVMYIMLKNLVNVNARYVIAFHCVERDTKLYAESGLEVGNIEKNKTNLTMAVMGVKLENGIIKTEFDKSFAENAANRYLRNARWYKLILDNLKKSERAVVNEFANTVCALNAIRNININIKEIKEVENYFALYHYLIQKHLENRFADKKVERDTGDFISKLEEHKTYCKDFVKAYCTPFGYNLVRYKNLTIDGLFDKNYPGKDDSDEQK

B1: target 1 A1G,A20C (mixed)
RNA 1: CACCCGUGCAAAAAUGCAGGGGUCUAAAACUGAGCGGAUAACCUCUCUAUGG
RNA 2: GGGAAUGGAUCCACAUCUACGAAUUCGUACCCUAGAGAGGUUAUCCGCUCGCCGAGAUCGGAAGAGCACACGU
B2: target 1 C7U,U8G (mixed)
RNA 1: B1 RNA 1
RNA 2: B1 RNA 2 with C32A, U44G, C45U, G51A
B3: target 1 insG 3' of 19,insG 3' of 2 (mixed)
RNA 1: B1 RNA 1
RNA 2: GGGAAUGGAUCCACAUCUACGAAUUCGUACCAUGAGAGAGGUUAUCCGCUCGACCGAGAUCGGAAGAGCACACGU
B4: target 1 C2A,U10G (mixed)
RNA 1: B1 RNA 1
RNA 2: B1 RNA 2 with C32A, U42G, C50A, G51A
B5: target 1 insG 3' of 11,insG 3' of 3 (mixed)
RNA 1: B1 RNA 1
RNA 2: GGGAAUGGAUCCACAUCUACGAAUUCGUACCAUAGAGAGGUGUAUCCGCUGCACCGAGAUCGGAAGAGCACACGU
B6: target 1 insA 3' of 19,insA 3' of 8 (mixed)
RNA 1: B1 RNA 1
RNA 2: B3 RNA 2 with G34A, C46A, G48C, C49G, U50C, C51U, G52C
B7: target 1 C2U,G15C (mixed)
RNA 1: B1 RNA 1
RNA 2: B1 RNA 2 with C32A, G37C, C50U, G51A
B8: target 1 U8A,U11A (mixed)
RNA 1: B1 RNA 1
RNA 2: B1 RNA 2 with C32A, U41A, U44A, G51A
B9: target 1 G13A,A20U (mixed)
RNA 1: B1 RNA 1
RNA 2: B1 RNA 2 with C32U, G39A, G51A
B10: target 1 G5U,U11C (mixed)
RNA 1: B1 RNA 1
RNA 2: B1 RNA 2 with C32A, U41C, G47U, G51A
B11: target 1 insU 3' of 17,insU 3' of 7 (mixed)
RNA 1: B1 RNA 1
RNA 2: B3 RNA 2 with G34A, A35G, G36U, C47U, G48C, C49G, U50C, C51U, G52C
B12: target 1 insC 3' of 8,insG 3' of 6 (mixed)
RNA 1: B1 RNA 1
RNA 2: B5 RNA 2 with G42U, U43A, A44U, U45C, C49G, U50C, G51U
B13: target 1 G13C,A14U (mixed)
RNA 1: B1 RNA 1
RNA 2: B1 RNA 2 with C32A, A38U, G39C, G51A
B14: target 1 A20C,C21A (mixed)
RNA 1: B1 RNA 1
RNA 2: B1 RNA 2 with C31A, G51A
B15: target 1 insA 3' of 12,insU 3' of 12 (mixed)
RNA 1: B1 RNA 1
RNA 2: B5 RNA 2 with U41A, G42U, A44U, U45A, C46U, G48C, C49G, U50C, G51U
B16: target 1 insA 3' of 15,insG 3' of 3 (mixed)
RNA 1: B1 RNA 1
RNA 2: B5 RNA 2 with G39A, U41G, G42U
B17: target 1 insA 3' of 11,insG 3' of 1 (mixed)
RNA 1: B1 RNA 1
RNA 2: B5 RNA 2 with G42A, G51C, C52A, A53G
B18: target 1 insA 3' of 22,insC 3' of 22 (mixed)
RNA 1: B1 RNA 1
RNA 2: GGGAAUGGAUCCACAUCUACGAAUUCGUACACCAUAGAGAGGUUAUCCGCUCACCGAGAUCGGAAGAGCACACGU
B19: target 1 G17U,A20C (mixed)
RNA 1: B1 RNA 1
RNA 2: B1 RNA 2 with G35U, G51A
B20: target 1 insA 3' of 11,insC 3' of 1 (mixed)
RNA 1: B1 RNA 1
RNA 2: B5 RNA 2 with G42A, G51C, C52A, A53C
B21: target 1 insC 3' of 13,insC 3' of 5 (mixed)
RNA 1: B1 RNA 1
RNA 2: B5 RNA 2 with G40C, U41G, G42U, U50C, G51U
B22: target 1 insG 3' of 18,insA 3' of 12 (mixed)
RNA 1: B1 RNA 1
RNA 2: GGGAAUGGAUCCACAUCUACGAAUUCGUACCAUAGGAGAGGAUUAUCCGCUCACCGAGAUCGGAAGAGCACACGU
B23: target 1 U3A,G5C (mixed)
RNA 1: B1 RNA 1
RNA 2: B1 RNA 2 with C32A, G47C, U49A, G51A
B24: target 1 complement block 1-9 (mixed)
RNA 1: B1 RNA 1
RNA 2: GGGAAUGGAUCCACAUCUACGAAUUCGUACCAUAGAGAGGUUUAGGCGAGUCCGAGAUCGGAAGAGCACACGU
B25: target 1 insC 3' of 10,insC 3' of 8 (mixed)
RNA 1: B1 RNA 1
RNA 2: B5 RNA 2 with G42U, U43C, G48C, C49G, U50C, G51U
B26: target 1 C6G,G17A (mixed)
RNA 1: B1 RNA 1
RNA 2: B1 RNA 2 with C32A, G35A, C46G, G51A
B27: target 1 insA 3' of 11,insU 3' of 1 (mixed)
RNA 1: B1 RNA 1
RNA 2: B5 RNA 2 with G42A, G51C, C52A, A53U
B28: target 1 insC 3' of 14,insG 3' of 4 (mixed)
RNA 1: B1 RNA 1
RNA 2: B5 RNA 2 with G39C, U41G, G42U, U50G, G51U
B29: target 1 U11A,G13U (mixed)
RNA 1: B1 RNA 1
RNA 2: B1 RNA 2 with C32A, G39U, U41A, G51A
B30: target 1 A1U,C2A (mixed)
RNA 1: B1 RNA 1
RNA 2: B1 RNA 2 with C32A, C50A, G51U
B31: target 1 A20C (mixed)
RNA 1: B1 RNA 1
RNA 2: B1 RNA 2 with G51A
B32: target 1 insC 3' of 10,insG 3' of 9 (mixed)
RNA 1: B1 RNA 1
RNA 2: B5 RNA 2 with G42U, U43C, U45G, C46U, G48C, C49G, U50C, G51U
B33: target 1 C4G,C21A (mixed)
RNA 1: B1 RNA 1
RNA 2: B1 RNA 2 with C31A, C32A, C48G, G51A
B34: target 1 insC 3' of 15,insA 3' of 10 (mixed)
RNA 1: B1 RNA 1
RNA 2: B22 RNA 2 with G36A, A37G, G38C, A42U, U44A

Biological target: T1, EsCas13d, nuclease-dead
Assay: crRNA (strand 1, pre-loaded); Mg2+; 40 mM Tris-HCl pH 7.5, 150 mM NaCl, 6 mM MgCl2, 1 mM DTT, 0.1% Tween-20, 0.2 mg/ml BSA; 25 C; 10 min per concentration, then washed
Details: tags: His6-TwinStrep-SUMO cleaved; N-terminal SNAP kept (SNAP-Surface 488); label: 3' end held by stalled T7 RNA polymerase

Going from B1 to B2, the Kd falls from 41 ± 4 nM to 14.2 ± 1 nM (2.9-fold). The second binds more tightly here.

Going from B3 to B4, the Kd falls from 99 ± 26 nM to 28 ± 1.9 nM (3.5-fold). The second binds more tightly here.

B5 and B6 are within 1.5-fold of each other in Kd: 42 ± 7 nM for the first, 31.1 ± 2.7 nM for the second.

First: B7
Second: B8
The Kd of the first is 1.8-fold higher: 49 ± 5 nM for the first, 26.8 ± 1.9 nM for the second.

Compared with B9, B10 is 4.2-fold higher in Kd: 14.5 ± 2.2 nM for the first, 61 ± 8 nM for the second.

B11 and B12 are within 1.5-fold of each other in Kd: 25.4 ± 1 nM for the first, 17.1 ± 1.3 nM for the second.

First: B13
Second: B14
The Kd of the first is 2.3-fold higher: 13.1 ± 1.1 nM for the first, 5.63 ± 0.34 nM for the second. The second binds more tightly here.

Compared with B15, B16 is 11-fold lower in Kd: 58 ± 16 nM for the first, 5.1 ± 0.4 nM for the second. The second binds more tightly here.

Compared with B17, B18 is 2.3-fold lower in Kd: 20.8 ± 1 nM for the first, 8.92 ± 0.33 nM for the second.

First: B19
Second: B20
The Kd of the first is 5.6-fold higher: 88 ± 21 nM for the first, 15.8 ± 1.1 nM for the second. The second binds more tightly here.

Going from B21 to B22, the Kd rises from 16.9 ± 1.2 nM to 73 ± 32 nM (4.3-fold). The first binds more tightly here.

First: B23
Second: B24
The Kd of the first is 1.8-fold higher: 16.9 ± 0.9 nM for the first, 9.5 ± 0.7 nM for the second. The second binds more tightly here.

B25 and B26 are within error of each other in Kd: 63 ± 13 nM for the first, 48 ± 6 nM for the second.

B27 and B28 are within error of each other in Kd: 19 ± 1.3 nM for the first, 21 ± 1.2 nM for the second.

First: B29
Second: B30
The Kd of the first is 4.1-fold higher: 34.2 ± 2.2 nM for the first, 8.4 ± 0.7 nM for the second. The second binds more tightly here.

First: B31
Second: B32
The Kd of the first is 2-fold higher: 34.2 ± 2.5 nM for the first, 17.1 ± 1 nM for the second.

First: B33
Second: B34
The Kd of the first is 2.5-fold lower: 25.5 ± 2.8 nM for the first, 65 ± 11 nM for the second.
